The target in the experiment is T1, cMet-his (Homo sapiens (Human), UniProt P08581 25-933).
T1 construct: also called his tagged cMET; Recombinant polyhistidine-tagged c-Met
Kind of experiment: BLI (ForteBio Octet), antibody loaded on Protein A tips, his tagged cMET in solution, 1:1 model. The procedure: Protocol: All reagents are equilibrated and samples are brought to room temperature. Protein A sensor tips (Fortebio, #18-5010) are hydrated for 10 min in 1×PBS. Kinetic assays are run using the Octet software and procedure per manufacturer's instruction. Assay steps typically include: 1-2 min of equilibration in 1×PBS, 4 min of antibody loading (conc: 50 μg/mL in 1×PBS), 1-2 min of baseline stabilization, 4 min of antibody:antigen association, and 4 min of antibody:antigen dissociation. 1×PBS is used as the matrix throughout. Data are analyzed with Octet Data Analysis software, processed, and fit to the curve using 1:1 binding model to determine kinetic parameters (Kₐ, Kₒₙ and Koff)
(In general: BLI is a label-free optical method that tracks binding on a fibre tip over time.)

5 molecules from patent publication US20140302035A1 (MERRIMACK PHARMACEUTICALS, published 2014) can be followed below.

B1: Onartuzumab-39 (antibody)
heavy: EVQLVESGGGLVQPGGSLRLSCAASGYTFTSYWLHWVRQAPGKGLEWVGMIDPSNSDTRFNPNFKDRFTISADTSKNTAYLQMNSLRAEDTAVYYCATYRSYVTPLDYWGQGTLVTVSSASTKGPSVFPLAPSSKSTSGGTAALGCLVKDYFPEPVTVSWNSGALTSGVHTFPAVLQSSGLYSLSSVVTVPSSSLGTQTYICNVNHKPSNTKVDKKVEPKSCDKTHTCPSCPAPEFLGGPSVFLFPPKPKDTLMISRTPEVTCVVVDVSQEDPEVQFNWYVDGVEVHNAKTKPREEQFNSKYRVVSVLTVLHQDWLNGKEYKCKVSNKGLPSSIEKTISKAKGQPREPQVYTLPPSREEMTKNQVSLSCAVKGFYPSDIAVEWESNGQPENNYKTTPPVLDSDGSFFLVSKLTVDKSRWQQGNVFSCSVMHEALHNHYTQKSLSLSPGKGGGGSGGGGSGGGGSGGGGSGGGGSGGGGSGGGGSGGGGSCPSCPAPEFLGGPSVFLFPPKPKDTLMISRTPEVTCVVVDVSQEDPEVQFNWYVDGVEVHNAKTKPREEQFNSKYRVVSVLTVLHQDWLNGKEYKCKVSNKGLPSSIEKTISKAKGQPREPQVYTLPPSREEMTKNQVSLWCLVKGFYPSDIAVEWESNGQPENNYKTTPPVLDSDGSFFLYSKLTVDKSRWQQGNVFSCSVMHEALHNHYTQKSLSLSPGK
light: DIQMTQSPSSLSASVGDRVTITCKSSQSLLYTSSQKNYLAWYQQKPGKAPKLLIYWASTRESGVPSRFSGSGSGTDFTLTISSLQPEDFATYYCQQYYAYPWTFGQGTKVEIKRTVAAPSVFIFPPSDEQLKSGTASVVCLLNNFYPREAKVQWKVDNALQSGNSQESVTEQDSKDSTYSLSSTLTLSKADYEKHKVYACEVTHQGLSSPVTKSFNRGEC
notes: Monovalent tandem Fc antibody: onartuzumab anti-c-Met Fab on IgG1/IgG4 hybrid TFc 39
One may read the Kd as a measure of binding affinity in units of concentration. As for B1, binding was characterised by a dissociation constant (Kd) of 1.26 nM. In other words, the single-digit nanomolar range.

B2: Onartuzumab-39EGY4-cetuximab (bispecific antibody)
heavy: EVQLVESGGGLVQPGGSLRLSCAASGYTFTSYWLHWVRQAPGKGLEWVGMIDPSNSDTRFNPNFKDRFTISADTSKNTAYLQMNSLRAEDTAVYYCATYRSYVTPLDYWGQGTLVTVSSASTKGPSVFPLAPSSKSTSGGTAALGCLVKDYFPEPVTVSWNSGALTSGVHTFPAVLQSSGLYSLSSVVTVPSSSLGTQTYICNVNHKPSNTKVDKKVEPKSCDKTHTCPSCPAPEFLGGPSVFLFPPKPKDTLMISRTPEVTCVVVDVSQEDPEVQFNWYVDGVEVHNAKTKPREEQFNSKYRVVSVLTVLHQDWLNGKEYKCKVSNKGLPSSIEKTISKAKGQPREPQVYTLPPSREEMTKNQVSLSCAVKGFYPSDIAVEWESNGQPENNYKTTPPVLDSDGSFFLVSKLTVDKSRWQQGNVFSCSVMHEALHNHYTQKSLSLSKSCDKTGGGGSGGGGSGGGGSGGGGSGGGGSGGGGSGGGGSGGGGSCPSCPAPEFLGGPSVFLFPPKPKDTLMISRTPEVTCVVVDVSQEDPEVQFNWYVDGVEVHNAKTKPREEQFNSDYRVVSVLTVLHQDWLNGKEYKCKVSNKGLPSSIEKTISKAKGQPREPQVYTLPPSREEMTKNQVSLWCLVKGFYPSDIAVEWESNGQPENNYKTTPPVLDSDGSFFLYSKLTVDKSRWQQGNVFSCSVMHEALHNHYTQKSLSLSGECGGGGSGGGGSQVQLVESGGGVVQPGESLRISCAVSGFSLTNYGVHWVRQAPGKGLEWLGVIWSGGNTDYNTPFTSRLTISKDNSKSTVYFQMNSLRAEDTAVYYCARALTYYDYEFAYWGQGTLVTVSSASTGGGGSGGGGSGGGGSGGGGSDIVLTQSPSSLSVTPGEKVTFTCRASQSIGTNIHWYQQKPGQSPKLLIKYASESISGVPSRFSGSGSGTDFTLTINSVEAEDAATYYCQQNNNWPTTFGQGTKLEIK
light: DIQMTQSPSSLSASVGDRVTITCKSSQSLLYTSSQKNYLAWYQQKPGKAPKLLIYWASTRESGVPSRFSGSGSGTDFTLTISSLQPEDFATYYCQQYYAYPWTFGQGTKVEIKRTVAAPSVFIFPPSDEQLKSGTASVVCLLNNFYPREAKVQWKVDNALQSGNSQESVTEQDSKDSTYSLSSTLTLSKADYEKHKVYACEVTHQGLSSPVTKSFNRGEC
notes: Anti-c-Met Fab / TFc 39E glycoform 4 / anti-EGFR cetuximab scFv
For the molecule B2, the Kd was determined as 0.9 nM.

B3: Onartuzumab (antibody)
chain 1: not shown
chain 2: DIQMTQSPSSLSASVGDRVTITCKSSQSLLYTSSQKNYLAWYQQKPGKAPKLLIYWASTRESGVPSRFSGSGSGTDFTLTISSLQPEDFATYYCQQYYAYPWTFGQGTKVEIKRTVAAPSVFIFPPSDEQLKSGTASVVCLLNNFYPREAKVQWKVDNALQSGNSQESVTEQDSKDSTYSLSSTLTLSKADYEKHKVYACEVTHQGLSSPVTKSFNRGEC
chain 3: not shown
For B3, the affinity, expressed as Kd, was 1.2 nM. The Kd values of the last two molecules are within 1.5-fold of each other.

B4: Onartuzumab-39EGY4-2224 (bispecific antibody)
heavy: EVQLVESGGGLVQPGGSLRLSCAASGYTFTSYWLHWVRQAPGKGLEWVGMIDPSNSDTRFNPNFKDRFTISADTSKNTAYLQMNSLRAEDTAVYYCATYRSYVTPLDYWGQGTLVTVSSASTKGPSVFPLAPSSKSTSGGTAALGCLVKDYFPEPVTVSWNSGALTSGVHTFPAVLQSSGLYSLSSVVTVPSSSLGTQTYICNVNHKPSNTKVDKKVEPKSCDKTHTCPSCPAPEFLGGPSVFLFPPKPKDTLMISRTPEVTCVVVDVSQEDPEVQFNWYVDGVEVHNAKTKPREEQFNSKYRVVSVLTVLHQDWLNGKEYKCKVSNKGLPSSIEKTISKAKGQPREPQVYTLPPSREEMTKNQVSLSCAVKGFYPSDIAVEWESNGQPENNYKTTPPVLDSDGSFFLVSKLTVDKSRWQQGNVFSCSVMHEALHNHYTQKSLSLSKSCDKTGGGGSGGGGSGGGGSGGGGSGGGGSGGGGSGGGGSGGGGSCPSCPAPEFLGGPSVFLFPPKPKDTLMISRTPEVTCVVVDVSQEDPEVQFNWYVDGVEVHNAKTKPREEQFNSDYRVVSVLTVLHQDWLNGKEYKCKVSNKGLPSSIEKTISKAKGQPREPQVYTLPPSREEMTKNQVSLWCLVKGFYPSDIAVEWESNGQPENNYKTTPPVLDSDGSFFLYSKLTVDKSRWQQGNVFSCSVMHEALHNHYTQKSLSLSGECGGGGSGGGGSEVQLVQSGAEVKKPGSSVKVSCKASGGTFSSYAIGWVRQAPGQGLEWMGGIIPIFGIANYAQKFQGRVTITADESTSSAYMELSSLRSEDTAVYYCAREEGPYCSSTSCYAAFDIWGQGTLVTVSSASTGGGGSGGGGSGGGGSGGGGSQSVLTQDPAVSVALGQTVKITCQGDSLRSYFASWYQQKPGQAPTLVMYARNDRPAGVPDRFSGSKSGTSASLAISGLQPEDEADYYCAAWDDSLNGYLFGAGTKLTVL
light: DIQMTQSPSSLSASVGDRVTITCKSSQSLLYTSSQKNYLAWYQQKPGKAPKLLIYWASTRESGVPSRFSGSGSGTDFTLTISSLQPEDFATYYCQQYYAYPWTFGQGTKVEIKRTVAAPSVFIFPPSDEQLKSGTASVVCLLNNFYPREAKVQWKVDNALQSGNSQESVTEQDSKDSTYSLSSTLTLSKADYEKHKVYACEVTHQGLSSPVTKSFNRGEC
notes: Anti-c-Met Fab / TFc 39E glycoform 4 / anti-EGFR 2224 scFv; also called Onartuzumab-39EGY4-224; onartuzumab-39Egy-2224
In turn, B4 displayed a Kd of 1.29 nM.

B5: Onartuzumab-39EGY4-panitumumab (bispecific antibody)
heavy: EVQLVESGGGLVQPGGSLRLSCAASGYTFTSYWLHWVRQAPGKGLEWVGMIDPSNSDTRFNPNFKDRFTISADTSKNTAYLQMNSLRAEDTAVYYCATYRSYVTPLDYWGQGTLVTVSSASTKGPSVFPLAPSSKSTSGGTAALGCLVKDYFPEPVTVSWNSGALTSGVHTFPAVLQSSGLYSLSSVVTVPSSSLGTQTYICNVNHKPSNTKVDKKVEPKSCDKTHTCPSCPAPEFLGGPSVFLFPPKPKDTLMISRTPEVTCVVVDVSQEDPEVQFNWYVDGVEVHNAKTKPREEQFNSKYRVVSVLTVLHQDWLNGKEYKCKVSNKGLPSSIEKTISKAKGQPREPQVYTLPPSREEMTKNQVSLSCAVKGFYPSDIAVEWESNGQPENNYKTTPPVLDSDGSFFLVSKLTVDKSRWQQGNVFSCSVMHEALHNHYTQKSLSLSKSCDKTGGGGSGGGGSGGGGSGGGGSGGGGSGGGGSGGGGSGGGGSCPSCPAPEFLGGPSVFLFPPKPKDTLMISRTPEVTCVVVDVSQEDPEVQFNWYVDGVEVHNAKTKPREEQFNSDYRVVSVLTVLHQDWLNGKEYKCKVSNKGLPSSIEKTISKAKGQPREPQVYTLPPSREEMTKNQVSLWCLVKGFYPSDIAVEWESNGQPENNYKTTPPVLDSDGSFFLYSKLTVDKSRWQQGNVFSCSVMHEALHNHYTQKSLSLSGECGGGGSGGGGSQVQLQESGPGLVKPSETLSLTCTVSGGSVSSGDYYWTWIRQSPGKGLEWIGHIYYSGNTNYNPSLKSRLTISIDTSKTQFSLKLSSVTAADTAIYYCVRDRVTGAFDIWGQGTMVTSSASTGGGGSGGGGSGGGGSGGGGSDIQMTQSPSSLSASVGDRVTITCQASQDISNYLNWYQQKPGKAPKLLIYDASNLETGVPSRFSGSGSGTDFTFTISSLQPEDEATYFCQHFDHLPLAFGGGTKVEIKRT
light: DIQMTQSPSSLSASVGDRVTITCKSSQSLLYTSSQKNYLAWYQQKPGKAPKLLIYWASTRESGVPSRFSGSGSGTDFTLTISSLQPEDFATYYCQQYYAYPWTFGQGTKVEIKRTVAAPSVFIFPPSDEQLKSGTASVVCLLNNFYPREAKVQWKVDNALQSGNSQESVTEQDSKDSTYSLSSTLTLSKADYEKHKVYACEVTHQGLSSPVTKSFNRGEC
notes: Anti-c-Met Fab / TFc 39E glycoform 4 / anti-EGFR panitumumab scFv
B5 yielded a Kd of 1.6 nM.
